Experimental data from PMC3923439, “Anti-inflammatory properties of a novel peptide interleukin 1 receptor antagonist” (Journal of Neuroinflammation, 2014).

B1: sIL-1RI: soluble IL-1 receptor type I (recombinant ectodomain of IL-1RI) (protein)
chain: LEADKCKEREEKIILVSSANEIDVRPCPLNPNEHKGTITWYKDDSKTPVSTEQASRIHQHKEKLWFVPAKVEDSGHYYCVVRNSSYCLRIKISAKFVENEPNLCYNAQAIFKQKLPVAGDGGLVCPYMEFFKNENNELPKLQWYKDCKPLLLDNIHFSGVKDRLIVMNVAEKHRGNYTCHASYTYLGKQYPITRVIEFITLEENKPTRPVIVSPANETMEVDLGSQIQLICNVTGQLSDIAYWKWNGSVIDEDDPVLGEDYYSVENPANKRRSTLITVLNISEIESRFYKHPFTCFAKNTHGIDAAYIQLIYPVTNFQK

Tests used:
[1] = test system: Cerebellar granule neurons; experiment: Survival of cerebellar granule neurons induced to undergo apoptosis by low potassium; assay type: cell-based, rat; conditions: 5 mM KCl, survival estimated 48 hours later
Experimental: (§1) Cerebellar granule neurons (CGNs) were prepared from 7-day-old Wistar rats (from Charles River Laboratories, Sulzfeld, Germany; or from Hygind Møllegård Erik Møllegaard Hansen, Ejby, Denmark) as previously described. Briefly, the cerebella were cleared of meninges and blood vessels, roughly homogenized by chopping and trypsinized. The cells were washed in the presence of DNAse I and soybean trypsin inhibitor (Sigma-Aldrich, St Louis, MO, USA), and cellular debris was pelleted by centrifugation. The fibroblastoid mouse cell line L929 (LVN; European Collection of Cell Cultures, Porton Down, UK) was routinely grown at 37°C with 5% CO2 in DMEM supplemented with 10% (vol/vol) FCS, 2 mM GlutaMAX, 100 U/ml penicillin and 100 μg/ml streptomycin.
(§2) Cerebellar granule neurons were plated at a density of 1 × 10^5 cells/cm^2 on poly-L-lysine-coated, eight-well Permanox Lab-Tek chamber slides (Nunc) in Neurobasal-A medium supplemented with 2% (vol/vol) B27 (Gibco BRL), 0.5% (vol/vol) GlutaMAX, 100 U/ml penicillin and 100 μg/ml streptomycin. The CGN survival assay was performed as previously described. The neurite outgrowth assay was also performed as previously described.
Figure 5 Effect of Ilantide and interleukin 1 receptor antagonist on survival of cerebellar granule neurons induced to undergo apoptosis. The neurons were allowed to differentiate for 7 days in a high-potassium (40 mM) medium before apoptosis was induced by changing to a low-potassium medium (5 mM). Survival was estimated 48 hours later. (A) The effect of insulin-like growth factor 1 (IGF-1), interleukin 1 receptor antagonist (IL-1Ra) and IL-1β on cerebellar granule neuron (CGN) apoptosis induced by 5 mM KCl. (B) The effect of Ilantide-m on CGN apoptosis induced by 5 mM KCl. […] The results from at least four independent experiments are expressed as mean ± SEM with untreated cultures induced to undergo apoptosis by 5 mM KCl set at 100%. *P < 0.05 and **P < 0.01 compared with untreated cultures induced to undergo apoptosis (one-way analysis of variance followed by Newman-Keuls post hoc test).

[2] = molecular target: T1, ectodomain of IL-1RI (Homo sapiens, UniProt P14778); experiment: Surface plasmon resonance binding of immobilized ligand to recombinant IL-1RI ectodomain; conditions: SPR, Biacore 2000, ligand immobilized on CM4 chip, IL-1RI ectodomain injected, 25°C
T1 construct: the recombinant ectodomain of IL-1RI (R&D Systems) was injected; purchased R&D Systems
T1 sequence (P14778 18-336 limits assumed): B1 chain
Experimental: (§3) The binding analysis was performed using a Biacore 2000 instrument (GE Healthcare Life Sciences) that contained 150 mM NaCl as running buffer at 25°C with 10 mM sodium phosphate (pH 7.4). The flow rate was 5 μl/min during immobilization. Ilantide peptide, IL-1β or IL-1Ra was immobilized on a CM4 sensor chip according to the manufacturer’s instructions, after which the recombinant ectodomain of IL-1RI (R&D Systems) was injected. The neural cell adhesion molecule (NCAM) immunoglobulin modules 1 and 2 (Ig1 and Ig2) were used as a negative control protein [9]. The data were analyzed using nonlinear curve-fitting with the manufacturer’s software.

[3] = test system: Cerebellar granule neurons; experiment: Neurite outgrowth from cerebellar granule neurons; assay type: cell-based, rat; conditions: for Neurite outgrowth from CGNs: 7-day-old CGNs grown on fibroblast cells, 24 hours
Experimental: as §1, §2
Figure 6 Effect of Ilantide on neurite outgrowth from cerebellar granule neurons. Cerebellar granule neuron cultures were treated with interleukin 1 receptor antagonist (IL-1Ra) (A), soluble interleukin 1 receptor type I (sIL-1RI) (B), Ilantide-t (C) or IL-1β (D) for 24 hours. The cultures were fixed and immunostained with rabbit anti-rat growth-associated protein 43 (anti-GAP-43) primary antibodies and then with secondary Alexa Fluor 488 goat anti-rabbit antibodies. (E) Effect of IL-1β on neurite outgrowth induced by IL-1Ra. (F) Effect of IL-1β on neurite outgrowth induced by Ilantide-t. The results from three to four independent experiments are expressed as percentage ± SEM with untreated controls set at 100%, corresponding to an average neurite length of 19.3 ± 4.1 μm. *P < 0.05 and **P < 0.01 compared with untreated controls (A to D) or cultures treated with either IL-1Ra or Ilantide alone (E and F) by one-way analysis of variance followed by the Newman-Keuls post hoc test).

[4] = test system: double-Ig module (Ig1-Ig2) of NCAM; experiment: Surface plasmon resonance, negative control protein; assay type: binding; conditions: SPR
Experimental: as §3

[5] = test system: HEK-Blue IL-1β cells (IL-1RI / NF-κB); experiment: IL-1β-induced NF-κB activation, SEAP reporter; assay type: cell-based; conditions: 1.2 pM IL-1β, 24 hours, SEAP read at 600 nm, four independent experiments
Experimental: HEK-Blue IL-1β cells that contained an IL-1β-sensitive reporter (InvivoGen, San Diego, CA, USA) and HEK-Blue IL-6 cells that contained an IL-6-sensitive reporter (InvivoGen) were grown at 37°C with 5% CO2 in Dulbecco’s modified Eagle’s medium (DMEM) supplemented with 5% (vol/vol) fetal calf serum (FCS), 4.5 g/L glucose, 2 mM GlutaMAX medium, 100 U/ml penicillin, 100 μg/ml streptomycin (all obtained from Gibco BRL/Life Technologies, Taastrup, Denmark), 100 μg/ml zeocin, 200 μg/ml hygromycin and 100 μg/ml Normocin (all purchased from InvivoGen).
HEK-Blue IL-1β cells allow the monitoring of the activation of the NF-κB pathway specifically in response to IL-1β. They express a NF-κB-inducible secreted embryonic alkaline phosphatase (SEAP) reporter gene. The binding of IL-1β to its receptor IL-1RI on the surface of HEK-Blue IL-1β cells triggers a signaling cascade that leads to the activation NF-κB and the subsequent production of SEAP. HEK-Blue IL-1β cells were grown as described above. The cells were seeded onto a 96-well plate at a density 3.5 × 10^5 cells/ml. For the NF-κB activation assay, the cells were treated with 1.2 pM IL-1β alone or together with sIL-1RI, IL-1Ra or various concentrations of Ilantide. After 24 hours of incubation at 37°C, 150 μl of the cell supernatants were added to each well of a 96-well plate together with 50 μl of QUANTI-Blue (InvivoGen), incubated at 37°C for 40 minutes and measured in an enzyme-linked immunosorbent assay (ELISA) reader at 600 nm to determine the expression levels of reporter genes activated by NF-κB.

[6] = test system: AMJ2-C8 macrophages; experiment: TNF-α secretion from IL-1β-activated macrophages (L929 bioassay); assay type: cell-based, mouse; conditions: 1.2 pM IL-1β, 24 hours; TNF-α by L929 survival with actinomycin D; hydrocortisone at 100 μM
Experimental: A murine alveolar macrophage cell line, AMJ2-C8 (American Type Culture Collection, Borås, Sweden), was routinely grown at 37°C with 5% CO2 in DMEM supplemented with 5% (vol/vol) FCS, 0.5% (v/v) 2-[4-(2-hydroxyethyl)piperazin-1-yl]ethanesulfonic acid (HEPES) (Gibco BRL), 2 mM GlutaMAX, 100 U/ml penicillin and 100 μg/ml streptomycin.
AMJ2-C8 macrophages were seeded into six-well multidishes at a density of 2.5 × 10^5 cells/well, and sIL-1RI, IL-1Ra or various concentrations of Ilantide were added to the cultures. Treatment with 100 μM hydrocortisone (Sigma-Aldrich, Brøndby, Denmark) was used as a positive control. After 10-minute incubation at 37°C, 1.2 pM IL-1β or IFN-γ (R&D Systems) was added to activate the macrophages. L929 cells were seeded onto a 96-well plate (Nunc, Roskilde, Denmark) at a density 0.2 × 10^2 cells/ml. Both cell cultures were incubated for 24 hours at 37°C. Conditioned medium from macrophages was collected and added to the L929 cell cultures together with actinomycin D (0.6 μg/well; Sigma-Aldrich). TNF-α is known to induce classic apoptosis in L929 cells in the presence of actinomycin D [12]. After 24-hour incubation at 37°C, 20 μl of 3-(4,5-dimethylthiazol-2-yl)-5-(3-carboxymethoxyphenyl)-2-(4-sulfophenyl)-2H-tetrazolium (Promega, Madison, WI, USA) were added to each well and incubated at 37°C in the dark for 45 minutes, then measured in an ELISA reader at 490 nm. To calculate the amount of TNF-α in the conditioned medium, fibroblasts were treated with standard concentrations of TNF-α (R&D Systems).

Row | Molecule | CGN survival after potassium withdrawal [1] | k a ([2]; 10 mM sodium phosphate pH 7.4, 150 mM NaCl) | k d ([2]; pH 7.4) | Neurite outgrowth from CGNs [3] | Effect on the neuritogenic effect of both IL-1Ra and Ilantide-t ([3]; IL-1β at 1.5 nM and 7.5 nM) | Binding to double-Ig module of NCAM (negative control) [4] | Inhibition of NF-κB activation induced by IL-1β [5] | Inhibition of IL-1β-induced TNF-α secretion in macrophages [6]
1 | IGF-1: insulin-like growth factor 1, positive control [reference compound] | inhibited |  |  |  |  |  |  | 
2 | IL-1β: recombinant interleukin 1β |  | 8.56 ± 2.79 × 10^5 M^-1 s^-1 | 7.53 ± 2.03 × 10^-4 s^-1 | did not have neuritogenic effects | significantly inhibited | no significant binding |  | 
3 | B1 |  |  |  | significantly induced neurite outgrowth |  |  | dose-dependently inhibited | significantly inhibited
